Target: recombinant triosephosphate isomerase from Fusarium oxysporum (FoxTPI) (Fusarium oxysporum)
Assay: SEC; gel filtration on Sephacryl 100 (16/60), 50 mM Tris pH 8.0, 0.5 mL/min; calibrated with Bio-Rad gel filtration standard; single peak at 47 mL, relative MW 56 kDa

stoichiometry N: 2
Substance: recombinant triosephosphate isomerase from Fusarium oxysporum (FoxTPI) (enzyme)

Reference: paper PMC7022633, “Gene Cloning, Recombinant Expression, Characterization, and Molecular Modeling of the Glycolytic Enzyme Triosephosphate Isomerase from Fusarium oxysporum” (Microorganisms, 2019)
